The values that follow come from IntAct's records for PubMed 24316379.

First the molecules themselves.
B1: Interleukin-1 receptor-associated kinase 4 (Homo sapiens), Q9NWZ3 (parent)
chain: MNKPITPSTYVRCLNVGLIRKLSDFIDPQEGWKKLAVAIKKPSGDDRYNQFHIRRFEALLQTGKSPTSELLFDWGTTNCTVGDLVDLLIQNEFFAPASLLLPDAVPKTANTLPSKEAITVQQKQMPFCDKDRTLMTPVQNLEQSYMPPDSSSPENKSLEVSDTRFHSFSFYELKNVTNNFDERPISVGGNKMGEGGFGVVYKGYVNNTTVAVKKLAAMVDITTEELKQQFDQEIKVMAKCQHENLVELLGFSSDGDDLCLVYVYMPNGSLLDRLSCLDGTPPLSWHMRCKIAQGAANGINFLHENHHIHRDIKSANILLDEAFTAKISDFGLARASEKFAQTVMTSRIVGTTAYMAPEALRGEITPKSDIYSFGVVLLEIITGLPAVDEHREPQLLLDIKEEIEDEEKTIEDYIDKKMNDADSTSVEAMYSVASQCLHEKKNKRPDIKKVQQLLQEMTAS

Variants of B1 are the subject of one experiment. The conditions noted are these: with MYD88, Q99836-1.
Chain of MYD88, Q99836-1 (Q99836 whole entry): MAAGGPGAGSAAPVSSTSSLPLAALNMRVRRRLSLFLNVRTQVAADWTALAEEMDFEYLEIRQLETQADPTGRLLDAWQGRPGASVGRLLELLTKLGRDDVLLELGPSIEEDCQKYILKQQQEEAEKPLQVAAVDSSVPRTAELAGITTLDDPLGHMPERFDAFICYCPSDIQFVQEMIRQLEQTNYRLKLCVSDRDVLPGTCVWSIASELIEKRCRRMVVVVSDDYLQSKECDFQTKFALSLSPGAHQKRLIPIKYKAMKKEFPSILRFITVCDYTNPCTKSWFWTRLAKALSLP
For the variant MNKPITPSTYVCCLNVGLIRKLSDFIDPQEGWKKLAVAIKKPSGDDRYNQFHIRRFEALLQTGKSPTSELLFDWGTTNCTVGDLVDLLIQNEFFAPASLLLPDAVPKTANTLPSKEAITVQQKQMPFCDKDRTLMTPVQNLEQSYMPPDSSSPENKSLEVSDTRFHSFSFYELKNVTNNFDERPISVGGNKMGEGGFGVVYKGYVNNTTVAVKKLAAMVDITTEELKQQFDQEIKVMAKCQHENLVELLGFSSDGDDLCLVYVYMPNGSLLDRLSCLDGTPPLSWHMRCKIAQGAANGINFLHENHHIHRDIKSANILLDEAFTAKISDFGLARASEKFAQTVMTSRIVGTTAYMAPEALRGEITPKSDIYSFGVVLLEIITGLPAVDEHREPQLLLDIKEEIEDEEKTIEDYIDKKMNDADSTSVEAMYSVASQCLHEKKNKRPDIKKVQQLLQEMTAS [R12C], the “effect of a mutation on the interaction” value is “decreasing interaction strength”.

As for MNKPITPSTYVRCLNVGLIWKLSDFIDPQEGWKKLAVAIKKPSGDDRYNQFHIRRFEALLQTGKSPTSELLFDWGTTNCTVGDLVDLLIQNEFFAPASLLLPDAVPKTANTLPSKEAITVQQKQMPFCDKDRTLMTPVQNLEQSYMPPDSSSPENKSLEVSDTRFHSFSFYELKNVTNNFDERPISVGGNKMGEGGFGVVYKGYVNNTTVAVKKLAAMVDITTEELKQQFDQEIKVMAKCQHENLVELLGFSSDGDDLCLVYVYMPNGSLLDRLSCLDGTPPLSWHMRCKIAQGAANGINFLHENHHIHRDIKSANILLDEAFTAKISDFGLARASEKFAQTVMTSRIVGTTAYMAPEALRGEITPKSDIYSFGVVLLEIITGLPAVDEHREPQLLLDIKEEIEDEEKTIEDYIDKKMNDADSTSVEAMYSVASQCLHEKKNKRPDIKKVQQLLQEMTAS [R20W], the “effect of a mutation on the interaction” value is “decreasing interaction strength”.

In the next experiment the parent is B1. As to conditions: with MYD88, Q99836-1. The source holds these as a separate data set.
Regarding MNKPITPSTYVCCLNVGLIRKLSDFIDPQEGWKKLAVAIKKPSGDDRYNQFHIRRFEALLQTGKSPTSELLFDWGTTNCTVGDLVDLLIQNEFFAPASLLLPDAVPKTANTLPSKEAITVQQKQMPFCDKDRTLMTPVQNLEQSYMPPDSSSPENKSLEVSDTRFHSFSFYELKNVTNNFDERPISVGGNKMGEGGFGVVYKGYVNNTTVAVKKLAAMVDITTEELKQQFDQEIKVMAKCQHENLVELLGFSSDGDDLCLVYVYMPNGSLLDRLSCLDGTPPLSWHMRCKIAQGAANGINFLHENHHIHRDIKSANILLDEAFTAKISDFGLARASEKFAQTVMTSRIVGTTAYMAPEALRGEITPKSDIYSFGVVLLEIITGLPAVDEHREPQLLLDIKEEIEDEEKTIEDYIDKKMNDADSTSVEAMYSVASQCLHEKKNKRPDIKKVQQLLQEMTAS [R12C], the “effect of a mutation on the interaction” value is reported as “disrupting interaction strength”.
